Test results from patent US20190092858A1.

Molecular target: plasma proteins (fresh human plasma)
Assay: size exclusion chromatography (Sephadex G-50 spin columns) with gamma counting, after incubation in fresh human plasma at 37 C for up to 4 h

protein binding (% bound to plasma proteins): < 5%
Substance: 99mTc-HYNIC-P8RI (obtained with tricine/EDDA as coligands) (peptide)
